The source of these data is paper PMC7377350.

The target of this data set is T1, CREB B-ZIP domain (UniProt P16220 269-327).
T1 sequence: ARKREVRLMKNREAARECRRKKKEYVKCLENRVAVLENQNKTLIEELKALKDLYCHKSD
The data set is described as follows: EMSA.

B1: CREB (CRE) 28-mer (dsDNA)
DNA 1: GTCAGTCAGATGACGTCATATCGGTCAG
DNA 2: CTGACCGATATGACGTCATCTGACTGAC
Turning to B1, the binding result was “binds”.
